From patent publication US20170130210A1 come the findings set out here.

In this assay the target is Pfk-I with the C-terminal degradation tag DAS+4, expressed from the pfkA locus of E. coli strain IB1863 (E. coli) (UniProt P0A796). The experiment in a line: cell-based or functional assay.

Where “and” joins values, the source holds several entries; their conditions need not be identical. Equal values may be shown once.

Pfk-I with the C-terminal degradation tag DAS+4, expressed from the pfkA locus of E. coli strain IB1863 (E. coli), sequence (P0A796 1-320, tags or fused parts left off): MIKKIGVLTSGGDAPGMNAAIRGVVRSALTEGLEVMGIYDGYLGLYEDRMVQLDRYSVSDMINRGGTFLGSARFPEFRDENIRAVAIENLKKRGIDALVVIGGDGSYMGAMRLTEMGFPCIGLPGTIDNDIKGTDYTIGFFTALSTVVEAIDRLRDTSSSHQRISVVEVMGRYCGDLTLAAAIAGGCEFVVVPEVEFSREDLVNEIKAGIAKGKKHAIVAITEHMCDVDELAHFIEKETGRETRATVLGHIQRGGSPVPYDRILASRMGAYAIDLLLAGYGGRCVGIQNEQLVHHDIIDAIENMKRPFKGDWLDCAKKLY

For “SspB, native E. coli adaptor protein (from UniProt P0AFZ3 1-165)”, the Pfk activity in crude lysate of IB1863 after aTc induction of SspB, relative to wild-type (% of wild-type) was 35 and 18.
